Assay results published in patent US20120329718A1.

Target: M2 muscarinic acetylcholine receptor, endogenous, canine atrium (canine)
Assay: cell-based or functional assay

Gαi2 C-terminal peptide expressed from a pFLAG CMV6a minigene (FLAG-tagged Gαi2ctp)
vagal-induced ERP shortening in the PLA, 3 days after minigene delivery (Gαi2ctp dogs vs. GαRp control dogs): 19.5 ms

Gαo1 C-terminal peptide expressed from a pFLAG CMV6a minigene (Gαo1ctp)
vagal-induced ERP shortening in the PLA, Gαo1ctp minigene given together with Gαi2ctp minigene (vs. Gαi2ctp alone): 2.8 ms
